Measured values: PMC11147780

B1: MPER (scaffold without germline-targeting mutations) 10E8-GT10.2 (substitutions not printed in the panel; sequence in Extended Data Fig. 1h) (protein)
chain: NVTQEDIIRALASPLIKDGMVDEDFAEYVIARENRSPTGLQAKGVGVAIPHTLGDYVRDNAISVGILDKPVNFSGWYQSPDPVPVRVVFMLAGRTWDDIVIVLKWIKDVILDEEFMKRLLNMSDEEIYRQIYTRISKAPNLSGINFSREYVRHLN
B2: MPER (scaffold without germline-targeting mutations) 10E8-GT11 (substitutions not printed in the panel; sequence in Extended Data Fig. 1h) (protein)
chain: VTQEDIIRALASPLIKDGMVDEDFAEKVIEQESRYPTGLQAKGVGVAIPHTLGDYVRDNAISVGILDKPVNFEGWYQSPDPVPVRVVFMLAIRTWDDIVNVLNWIKDVILDEEFMKRLLTMSDEEIYRQIYTRISKAPQLSGIHFKREYVRHLG
B3: MPER (scaffold without germline-targeting mutations) 10E8-GT12 (substitutions not printed in the panel; sequence in Extended Data Fig. 1h) (protein)
chain: ETGNVTQEDIIRALASPLIKDGMVDEDFAEKVIENESRYPSGLQAKGVGFAIPHVLGDYVRDNAISVGILDKPVNFSEWYQSPDPVPVRVVFMLAIRTWDDITNVMNWIKDVVLDEEFMKRLLNMSDEEIYRQIYTRISKAPNLSGINFSREYVRHLNGS
B4: 10E8-GT9.2 epitope scaffold P41Q (protein)
chain: EVTQEDIIRALASPLIKDGMVDEDFAEYVIEREKRSPTGLQVKGVGVAIPHTLGEYVRDNAISVGILDKPVNFEGWYQSPDPVPVRVVFMLAGRTWDDIVNVLKWIKDVILDEEFMKRLLTMSDEEIYRQIYTRISKAPGMRGIHFKREYVRHLG

Each binder was assayed against 10E8 unmutated common ancestor antibody (assay: SPR). Settings: chain shown with the change;; read off a plot.

Going from B1 to B2, the Kd rises from 0.038 µM to 1.4 µM (37-fold).

In the case of B3, the Kd is reported as 0.18 µM.

These binders were tested against 10E8-iGL3 antibody (fully germline-reverted 10E8) (assay: SPR). Settings: chain shown with the change;; read off a plot.

Going from B1 to B2, the Kd rises from 11 µM to 20 µM (1.8-fold). The first binds more tightly here.

Compared with B4, B3 is 4.4-fold lower in Kd: 8 µM for the first, 1.8 µM for the second.
